Legend:
[1] = target: Streptomyces lydicus Family 2B encapsulin shell protein Sl‐Enc2 with N‐terminal His‐tag (Streptomyces lydicus); experiment: cryo-EM structure; Sl‐Enc2 majority mixed sample, 2 mg/mL in 150 mM NaCl, 25 mM Tris pH 8.0; consensus refinement with icosahedral symmetry imposed, 2.59 Å
[2] = target: Streptomyces lydicus Family 2B encapsulin shell protein Sl‐Enc1 with N‐terminal His‐tag (Streptomyces lydicus); experiment: affinity purification with mass spectrometry; two-gene operon co-expressed in E. coli BL21 (DE3), only one of the two shell proteins His-tagged; Ni-NTA then SEC; SDS-PAGE bands identified by tryptic digest and LC-MS; ratio by gel densitometry

stoichiometry N [1] | apparent share of Sl‐Enc1 in the purified mixed shells (gel densitometry) [2] | apparent share of Sl‐Enc2 in the purified mixed shells (gel densitometry) [2] | Substance
60 |  |  | Streptomyces lydicus Family 2B encapsulin shell protein Sl‐Enc2 with N‐terminal His‐tag (natural protein)
 | 60% | 40% | Streptomyces lydicus Family 2B encapsulin shell protein Sl‐Enc2, untagged (natural protein)

Reference: PMC12407261
